Values quoted from earlier work, collected in paper PMC554781.

Target: CD200R (Homo sapiens) (UniProt Q8TD46)
Chain of UniProt Q8TD46 (Q8TD46 25-265): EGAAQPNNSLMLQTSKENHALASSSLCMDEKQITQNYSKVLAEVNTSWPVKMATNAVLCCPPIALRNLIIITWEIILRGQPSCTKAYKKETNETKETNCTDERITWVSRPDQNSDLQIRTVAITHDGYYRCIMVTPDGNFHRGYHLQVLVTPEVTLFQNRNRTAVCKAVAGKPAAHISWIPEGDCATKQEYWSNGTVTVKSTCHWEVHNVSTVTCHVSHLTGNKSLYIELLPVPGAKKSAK

## CD200 (from UniProt P41217)
  Kd: 500 nM
